The values below come from patent US8987192B2, “Potent and selective mediators of cholesterol efflux” (The Regents of the University of California, priority 2006, dated 2015).

B1: 24-mer core peptide of SEQ ID NO:4 with the S4>A substitution (peptide)
peptide: EVRAKLEEWFAAFREFAEEFLARL
B2: E8, 15>D analog of the polypeptide of SEQ ID NO:5 (peptide)
peptide: EVRSKLEDWFAAFRDFFEEFLARLKS
B3: inverted sequence peptide of SEQ ID NO:20, all D-amino acids (peptide)
peptide: [dS][dK][dL][dR][dA][dL][dF][dE][dE][dA][dF][dE][dR][dF][dA][dA][dF][dW][dE][dE][dL][dK][dS][dR][dV][dE]
B4: S4, 26>A analog of the polypeptide of SEQ ID NO:4 (peptide)
peptide: EVRAKLEEWFAAFREFAEEFLARLKA
B5: S26>Y analog of the polypeptide of SEQ ID NO:4 (peptide)
peptide: EVRSKLEEWFAAFREFAEEFLARLKY
B6: E1, 7, 8, 15, 18, 19>D analog of the polypeptide of SEQ ID NO:5 (peptide)
peptide: DVRSKLDDWFAAFRDFFDDFLARLKS
B7: R3, 14, 23→K3, 14, 23 analog of the polypeptide of SEQ ID NO:5 (peptide)
peptide: EVKSKLEEWFAAFKEFFEEFLAKLKS
B8: polypeptide of SEQ ID NO:4 composed of all D-amino acids (peptide)
peptide: [dE][dV][dR][dS][dK][dL][dE][dE][dW][dF][dA][dA][dF][dR][dE][dF][dA][dE][dE][dF][dL][dA][dR][dL][dK][dS]
B9: inverted sequence peptide of SEQ ID NO:20, all L-amino acids (peptide)
peptide: SKLRALFEEAFERFAAFWEELKSRVE
B10: 24-mer polypeptide of SEQ ID NO:5 lacking Lys25-Ser26 (peptide)
peptide: EVRSKLEEWFAAFREFFEEFLARL

“Also recorded” adds a separate entry of the source. Where no end group is shown, it is not given here. [ ]: non-standard residue; d: D form.

Sequence of ABCA1 (P41233 whole entry): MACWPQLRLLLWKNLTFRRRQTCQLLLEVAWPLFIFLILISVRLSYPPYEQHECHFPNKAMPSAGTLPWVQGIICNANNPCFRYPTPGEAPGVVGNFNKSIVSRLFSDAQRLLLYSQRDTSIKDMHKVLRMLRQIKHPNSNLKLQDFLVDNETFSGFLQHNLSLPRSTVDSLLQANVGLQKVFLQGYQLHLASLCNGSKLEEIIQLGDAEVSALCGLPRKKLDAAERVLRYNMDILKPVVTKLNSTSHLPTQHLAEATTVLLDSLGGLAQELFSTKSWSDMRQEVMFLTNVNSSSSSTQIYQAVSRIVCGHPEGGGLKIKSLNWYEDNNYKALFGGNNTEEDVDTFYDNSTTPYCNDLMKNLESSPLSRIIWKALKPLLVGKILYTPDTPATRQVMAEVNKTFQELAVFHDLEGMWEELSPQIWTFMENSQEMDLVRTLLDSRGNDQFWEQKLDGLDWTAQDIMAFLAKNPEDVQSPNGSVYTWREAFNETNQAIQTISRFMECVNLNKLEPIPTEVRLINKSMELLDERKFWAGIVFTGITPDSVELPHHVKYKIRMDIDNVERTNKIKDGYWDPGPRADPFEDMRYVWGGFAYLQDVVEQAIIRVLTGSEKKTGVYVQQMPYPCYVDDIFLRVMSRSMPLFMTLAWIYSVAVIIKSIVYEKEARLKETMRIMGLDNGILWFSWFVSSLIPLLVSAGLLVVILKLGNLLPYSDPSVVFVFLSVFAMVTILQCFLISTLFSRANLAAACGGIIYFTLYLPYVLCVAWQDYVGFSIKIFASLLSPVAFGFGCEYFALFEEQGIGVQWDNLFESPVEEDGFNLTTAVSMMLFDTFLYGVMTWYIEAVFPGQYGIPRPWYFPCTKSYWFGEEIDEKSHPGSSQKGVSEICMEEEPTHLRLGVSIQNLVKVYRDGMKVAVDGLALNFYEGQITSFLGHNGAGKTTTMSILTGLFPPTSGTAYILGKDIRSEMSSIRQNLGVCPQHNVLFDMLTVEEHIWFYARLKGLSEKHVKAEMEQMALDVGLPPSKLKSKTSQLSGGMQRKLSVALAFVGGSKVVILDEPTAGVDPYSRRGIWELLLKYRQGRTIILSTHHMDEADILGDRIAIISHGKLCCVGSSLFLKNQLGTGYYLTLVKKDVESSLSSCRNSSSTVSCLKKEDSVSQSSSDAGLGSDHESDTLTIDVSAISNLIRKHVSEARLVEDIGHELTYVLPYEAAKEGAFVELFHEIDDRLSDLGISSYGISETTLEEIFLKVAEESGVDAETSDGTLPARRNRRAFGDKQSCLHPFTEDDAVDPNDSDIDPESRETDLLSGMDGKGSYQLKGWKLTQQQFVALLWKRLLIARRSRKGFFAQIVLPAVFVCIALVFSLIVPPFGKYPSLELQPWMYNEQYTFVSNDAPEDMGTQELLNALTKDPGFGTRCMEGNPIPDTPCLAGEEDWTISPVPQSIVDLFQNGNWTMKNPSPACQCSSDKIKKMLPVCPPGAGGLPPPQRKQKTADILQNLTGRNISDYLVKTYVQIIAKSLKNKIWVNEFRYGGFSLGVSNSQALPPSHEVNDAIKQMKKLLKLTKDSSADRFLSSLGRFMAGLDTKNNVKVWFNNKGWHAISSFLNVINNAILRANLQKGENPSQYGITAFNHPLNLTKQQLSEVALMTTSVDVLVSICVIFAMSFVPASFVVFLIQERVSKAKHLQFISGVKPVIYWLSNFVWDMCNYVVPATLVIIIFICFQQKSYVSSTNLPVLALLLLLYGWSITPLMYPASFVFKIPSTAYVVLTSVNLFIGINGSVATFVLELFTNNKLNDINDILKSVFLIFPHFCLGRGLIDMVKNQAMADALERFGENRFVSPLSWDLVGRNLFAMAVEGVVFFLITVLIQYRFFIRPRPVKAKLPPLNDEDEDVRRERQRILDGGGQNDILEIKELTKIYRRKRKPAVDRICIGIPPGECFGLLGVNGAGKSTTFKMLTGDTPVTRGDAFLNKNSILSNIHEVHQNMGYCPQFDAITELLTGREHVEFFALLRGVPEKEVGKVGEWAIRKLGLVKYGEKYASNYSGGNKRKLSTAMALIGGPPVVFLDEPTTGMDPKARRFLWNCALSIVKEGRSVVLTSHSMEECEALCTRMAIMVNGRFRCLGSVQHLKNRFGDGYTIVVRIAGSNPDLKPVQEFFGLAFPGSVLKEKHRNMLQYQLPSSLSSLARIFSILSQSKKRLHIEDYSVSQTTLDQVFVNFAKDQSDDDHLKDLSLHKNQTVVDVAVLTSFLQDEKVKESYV

The target of the first series is ABCA1 of J774 mouse macrophages (mouse, UniProt P41233 1-2261). Briefly: cell-based or functional assay.
Sequence of ABCA1 of J774 mouse macrophages (P41233 whole entry): as above
Settings: not given
On to B1, for which the “cholesterol efflux: concentration giving maximal efflux” value is 3 µg/mL.

For the molecule B2, the “cholesterol efflux: concentration giving maximal efflux” value was determined as 3 µg/mL.

As for B3, the “cholesterol efflux: concentration giving maximal efflux” value amounted to 3 µg/mL.

B4: the “cholesterol efflux: concentration giving maximal efflux” value came to 3 µg/mL.

As for B5, the “cholesterol efflux: concentration giving maximal efflux” value worked out at 3 µg/mL.

B6: the “cholesterol efflux: concentration giving maximal efflux” value came out at 3 µg/mL.

Consider B7, for which the “cholesterol efflux: concentration giving maximal efflux” value was determined as 3 µg/mL.

Regarding B8, the “cholesterol efflux: concentration giving maximal efflux” value came out at 3 µg/mL.

Take B9: the “cholesterol efflux: concentration giving maximal efflux” value stood at 3 µg/mL.

Consider B10, for which the “cholesterol efflux: concentration giving maximal efflux” value came out at 3 µg/mL.

Tested on in another series: not given
Assay: not given
Particulars: scaled values = (raw log(P) + 2.061)/4.484; cited from earlier work.
For the molecule `NCCCC[C@H](N)C(=O)O` [Lysine], the Hydrophobicity is reported as 0.283.

Consider `N[C@@H](CCC(=O)O)C(=O)O` [Glutamate], for which the Hydrophobicity is reported as 0.043.

`NCC(=O)O` [Glycine]: the Hydrophobicity is 0.501.

In the case of `N[C@@H](Cc1c[nH]c2ccccc12)C(=O)O` [Tryptophan], the Hydrophobicity is 0.878.

Take `CSCC[C@H](N)C(=O)O` [Methionine]: the Hydrophobicity is 0.738.

With `CC(C)[C@H](N)C(=O)O` [Valine], the Hydrophobicity is reported as 0.825.

For `CC[C@H](C)[C@H](N)C(=O)O` [Isoleucine], the Hydrophobicity was 0.943.

Turning to `C[C@H](N)C(=O)O` [Alanine], the Hydrophobicity is given as 0.616.

With `N[C@@H](Cc1ccccc1)C(=O)O` [Phenylalanine], the Hydrophobicity is listed as 1.00.

With `N[C@@H](Cc1ccc(O)cc1)C(=O)O` [Tyrosine], the Hydrophobicity is reported as 0.880.

With `O=C(O)[C@@H]1CCCN1` [Proline], the Hydrophobicity is on record as 0.711.

Turning to `C[C@@H](O)[C@H](N)C(=O)O` [Threonine], the Hydrophobicity is on record as 0.450.

Take `NC(=O)C[C@H](N)C(=O)O` [Asparagine]: the Hydrophobicity is listed as 0.236.

`N[C@@H](Cc1c[nH]cn1)C(=O)O` [Histidine]: the Hydrophobicity is 0.165.

Regarding `N=C(N)NCCC[C@H](N)C(=O)O` [Arginine], the Hydrophobicity was 0.000.

For the next series, the target named is ABCA1 (Mus musculus, UniProt P41233). Kind of series: Cholesterol efflux from [3H]cholesterol-labeled ABCA1-expressing J774 mouse macrophages. Also on record: to upregulate cellular ABCA1 protein; endogenous in cells; host or cells: J774 mouse macrophages. The class given is cell-based. The conditions noted are these: 3 μg/ml lipid-free peptide, ABCA1-expressing macrophages. The method, then:
In some embodiments, a polypeptide known to mediate cholesterol efflux (e.g., helix 9/10 of Apo A-I) is used to screen for additional mediators of cholesterol efflux in a cell based assay. For example, cell lines in which cholesterol efflux can be enhanced using a cAMP analog that up-regulates ABCA1 protein expression (e.g., J774 macrophages) can conveniently be used to assess the ability of a polypeptide of the present invention to mediate cholesterol efflux. The cells are incubated with labeled cholesterol (e.g., [^3H]cholesterol) under conditions appropriate for cholesterol uptake by the cells. Thus, cAMP or cAMP analogs (e.g., CPT-cAMP) are incubated with the cells for a suitable time before the initiation of cellular cholesterol efflux, i.e., prior to contacting the cells with a test polypeptide. Measurement of labeled cholesterol appearing in the medium is used to determine the cholesterol efflux mediating activity of the test polypeptide.
J774 mouse macrophages labeled with [^3H]cholesterol were treated (20 h) with 22-hydroxycholesterol (10 μM)/cis-retinoic acid (10 μM) to upregulate cellular ABCA1 protein.
Mouse macrophages were labeled with [^3H]cholesterol and treated with a cAMP analog to induce ABCA1 expression. […] Km values were calculated using the Michaelis-Menton equation and GraphPad Prism4 software.
Inverted sequence peptides synthesized with all L-amino acids and all D-amino acids were tested for cholesterol efflux activity using ABCA1 expressing J774 macrophages.
Two peptide analogs were engineered; the first replacing glutamic acid residues (E) at position 8 and 15 with aspartic acid residues (D), i.e., E8, 15>D polypeptides, and the second, replacing E1, 7, 8, 15, 18, 19 with D, i.e., all D (Asp) polypeptide. Cholesterol efflux activity was determined using J774 macrophages treated with and without a cAMP analog to modulate ABCA1 expression.
The impact of the A12>L substitution was also tested for activity, which also expanded non-polar surface area.
1-palmitoyl-2-oleoyl-phosphatidylcholine (POPC) was used to evaluate the cholesterol efflux properties of a formulated polypeptide of the present invention. […] To test cholesterol efflux activity, J774 mouse macrophages were labeled with [^3H]cholesterol and treated with and without cAMP to modulate ABCA1 expression.
Consider “22-mer: SEQ ID NO:5 truncated from the C-terminal end to 22 residues (EVRSKLEEWFAAFREFFEEFLA; S1 amphipathic alpha-helix polypeptide core sequence selectively binds HDL, high-affinity ligand for ATP- binding cassette transporter A1 (ABCA1), ABCA1-lipid cholesterol efflux, ABCA1-stablization, anti-oxidant and anti-inflammatory activity)”, for which the “capacity to stimulate cholesterol efflux at 3 μg/ml” value is reported as “weakly active”.

“25-mer: SEQ ID NO:5 lacking the C-terminal Ser26 (EVRSKLEEWFAAFREFFEEFLARLK; S1 amphipathic alpha-helix polypeptide core sequence selectively binds HDL, high-affinity ligand for ATP- binding cassette transporter A1 (ABCA1), ABCA1-lipid cholesterol efflux, ABCA1-stablization, anti-oxidant and anti-inflammatory activity)”: the “capacity to stimulate cholesterol efflux at 3 μg/ml” value is recorded as “retained high capacity to stimulate cholesterol efflux; also recorded: retained high activity”.

The series is the same for the next values; noted with them: 30 μg/ml peptide.
Turning to “R3→Q: SEQ ID NO:5 with arginine 3 replaced by glutamine (EVQSKLEEWFAAFREFFEEFLARLKS; S1 amphipathic alpha-helix polypeptide core sequence selectively binds HDL, high-affinity ligand for ATP- binding cassette transporter A1 (ABCA1), ABCA1-lipid cholesterol efflux, ABCA1-stablization, anti-oxidant and anti-inflammatory activity)”, the “ABCA1-dependent cholesterol efflux at 30 μg/ml” value is recorded as “mediated cholesterol efflux in an ABCA1 dependent manner”.

With “R23→Q: SEQ ID NO:5 with arginine 23 replaced by glutamine (EVRSKLEEWFAAFREFFEEFLAQLKS; S1 amphipathic alpha-helix polypeptide core sequence selectively binds HDL, high-affinity ligand for ATP- binding cassette transporter A1 (ABCA1), ABCA1-lipid cholesterol efflux, ABCA1-stablization, anti-oxidant and anti-inflammatory activity)”, the “ABCA1-dependent cholesterol efflux at 30 μg/ml” value is “mediated cholesterol efflux in an ABCA1 dependent manner”.

The series is the same for the next values; noted with them: concentration dependence curves.
Regarding “R3→Q: SEQ ID NO:5 with arginine 3 replaced by glutamine (EVQSKLEEWFAAFREFFEEFLARLKS; S1 amphipathic alpha-helix polypeptide core sequence selectively binds HDL, high-affinity ligand for ATP- binding cassette transporter A1 (ABCA1), ABCA1-lipid cholesterol efflux, ABCA1-stablization, anti-oxidant and anti-inflammatory activity)”, the “efficiency of ABCA1 cholesterol efflux (concentration dependence)” value is recorded as “high efficiency”.

Consider “R23→Q: SEQ ID NO:5 with arginine 23 replaced by glutamine (EVRSKLEEWFAAFREFFEEFLAQLKS; S1 amphipathic alpha-helix polypeptide core sequence selectively binds HDL, high-affinity ligand for ATP- binding cassette transporter A1 (ABCA1), ABCA1-lipid cholesterol efflux, ABCA1-stablization, anti-oxidant and anti-inflammatory activity)”, for which the “efficiency of ABCA1 cholesterol efflux (concentration dependence)” value is given as “high efficiency”.

Still in this series, the particulars now being: macrophages with vs without cAMP.
As for “A12>L: A12>L substitution analogs of SEQ ID NO:4 (EVRSKLEEWFALFREFAEEFLARLKS; ATI-5261 amphipathic alpha-helix polypeptide core sequence selectively binds HDL, high-affinity ligand for ATP-binding cassette transporter A1 (ABCA1), ABCA1-lipid cholesterol efflux, ABCA1-stablization, anti-oxidant and anti- inflammatory activity)”, the ABCA1-dependent cholesterol efflux entry is on record as “stimulated cholesterol efflux from macrophages in an ABCA1-dependent manner”.

For “EVRSKLEEWFAAFREFAEEFLARLKS ([dE][dV][dR][dS][dK][dL][dE][dE][dW][dF][dA][dA][dF][dR][dE][dF][dA][dE][dE][dF][dL][dA][dR][dL][dK][dS])”, the ABCA1-dependent cholesterol efflux entry is reported as “promoted ABCA1 cholesterol efflux”.

As to “E1, 7, 8, 15, 18, 19>D: SEQ ID NO:5 with E1, 7, 8, 15, 18, 19 replaced with D (DVRSKLDDWFAAFRDFFDDFLARLKS; S1 amphipathic alpha-helix polypeptide core sequence selectively binds HDL, high-affinity ligand for ATP- binding cassette transporter A1 (ABCA1), ABCA1-lipid cholesterol efflux, ABCA1-stablization, anti-oxidant and anti-inflammatory activity)”, the ABCA1-dependent cholesterol efflux entry is “retained high capacity to stimulate cholesterol efflux in an ABCA1-dependent manner”.

Still in this series, the particulars now being: macrophages with vs without cAMP; listed as D-amino acid analog of SEQ ID NO:4.
Turning to “EVRSKLEEWFAAFREFAEEFLARLKS ([dE][dV][dR][dS][dK][dL][dE][dE][dW][dF][dA][dA][dF][dR][dE][dF][dA][dE][dE][dF][dL][dA][dR][dL][dK][dS])”, the ABCA1-dependent cholesterol efflux result is “stimulate ABCA1 cholesterol efflux in a ABCA1-dependent manner”.
